The results in this text go back to US20120316071A1 (published 2012).

Assay [1] deals with T1, Recombinant Human DLL4 (delta-like protein 4) (human, UniProt Q9NR61 27-524).
T1 construct: Bought recombinant protein (R&D Systems Cat#1506-D4/CF); also called rHuman DLL4
Put plainly: ELISA on plate-coated DLL4, 100 nM Fab. (In general: In an ELISA, binding on a coated surface is turned into a signal by an enzyme label.)

The target in assay [2] is T1, Recombinant Human DLL4 (delta-like …). Kind of assay: ECL 96-well plate assay on immobilised DLL4, 10 nM Fab.
The target of assay [3] is T2, Recombinant Human DLL4 (R&D Systems Cat#1506-D4/CF) (human, UniProt Q9NR61 27-524).
T2 construct: Bought recombinant protein; also called delta-like protein 4; rHuman DLL4
Kind of assay: ECL multispot (MSD) binding assay, DLL4 spotted on plate, purified Fab in solution; Fab concentration not given.

Assay [4] concerns the target T2, Recombinant Human DLL4 (R&D Systems …). Kind of assay: ECL multispot (MSD) binding assay, DLL4 signal over blank spot; Fab concentration not given.

B1: Fab VH1-46_IGHD6-6*01_IGHJ1*01 S102A/S103P/S104F/H111F G56H & L6_IGKJ1*01 (Fab, V domains shown)
VH: QVQLVQSGAEVKKPGASVKVSCKASGYTFTSYYMHWVRQAPGQGLEWMGIINPSGHSTSYAQKFQGRVTMTRDTSTSTVYMELSSLRSEDTAVYYCAREEYAPFSAEYFQFWGQGTLVTVSS
VL: not shown
notes: Fab from E. coli; CH1 (with His and Flag tags) and kappa CL come from the expression plasmids; also called APFF G56H
Regarding B1, the “ELISA signal” value in assay [1] is 0.65. Moreover, in assay [2], the “ECL signal” value is 68800.

B2: Fab VH1-46_IGHD6-6*01_IGHJ1*01 S102A/S103P/S104F/H111F S54I & L6_IGKJ1*01 (Fab, V domains shown)
VH: QVQLVQSGAEVKKPGASVKVSCKASGYTFTSYYMHWVRQAPGQGLEWMGIINPIGGSTSYAQKFQGRVTMTRDTSTSTVYMELSSLRSEDTAVYYCAREEYAPFSAEYFQFWGQGTLVTVSS
VL: not shown
notes: Fab from E. coli; CH1 (with His and Flag tags) and kappa CL come from the expression plasmids; also called APFF S54I
For B2, the “ELISA signal” value in assay [1] turned out to be 0.03. In assay [2], the “ECL signal” value stood at 18400.

B3: Fab VH1-46_IGHD6-6*01_IGHJ1*01 S102A/S103P/S104F/H111F N52V & L6_IGKJ1*01 (Fab, V domains shown)
VH: QVQLVQSGAEVKKPGASVKVSCKASGYTFTSYYMHWVRQAPGQGLEWMGIIVPSGGSTSYAQKFQGRVTMTRDTSTSTVYMELSSLRSEDTAVYYCAREEYAPFSAEYFQFWGQGTLVTVSS
VL: not shown
notes: Fab from E. coli; CH1 (with His and Flag tags) and kappa CL come from the expression plasmids; also called APFF N52V
On to B3, for which the “ELISA signal” value in assay [1] came to 0.24. Moreover, the “ECL signal” value in assay [2] was found to be 64700.

B4: Fab VH1-46_IGHD6-6*01_IGHJ1*01 S102A/S103P/S104F/H111F (APFF) & L6_IGKJ1*01 S28A (Fab, V domains shown)
VH: QVQLVQSGAEVKKPGASVKVSCKASGYTFTSYYMHWVRQAPGQGLEWMGIINPSGGSTSYAQKFQGRVTMTRDTSTSTVYMELSSLRSEDTAVYYCAREEYAPFSAEYFQFWGQGTLVTVSS
VL: EIVLTQSPATLSLSPGERATLSCRASQAVSSYLAWYQQKPGQAPRLLIYDASNRATGIPARFSGSGSGTDFTLTISSLEPEDFAVYYCQQRSNWPPWTFGQGTKVEIKR
notes: Fab expressed in E. coli: VH joined to CH1 (Plasmid A, His6 and Flag tags), VL joined to kappa CL (Plasmid C); also called APFF S28A
As to B4, in assay [3], the “ECL signal” value is 157000. For the same molecule, the Signal/Blank in assay [4] stood at 472.

B5: Fab VH1-46_IGHD6-6*01_IGHJ1*01 S102A/S103P/S104F/H111F N52G & L6_IGKJ1*01 (Fab, V domains shown)
VH: QVQLVQSGAEVKKPGASVKVSCKASGYTFTSYYMHWVRQAPGQGLEWMGIIGPSGGSTSYAQKFQGRVTMTRDTSTSTVYMELSSLRSEDTAVYYCAREEYAPFSAEYFQFWGQGTLVTVSS
VL: not shown
notes: Fab from E. coli; CH1 (with His and Flag tags) and kappa CL come from the expression plasmids; also called APFF N52G
On to B5, for which, in assay [1], the “ELISA signal” value came out at 0.47. For the same molecule, the “ECL signal” value in assay [2] is 55600.

B6: Fab VH1-46_IGHD6-6*01_IGHJ1*01 S102A/S103P/S104F/H111F N52R & L6_IGKJ1*01 (Fab, V domains shown)
VH: QVQLVQSGAEVKKPGASVKVSCKASGYTFTSYYMHWVRQAPGQGLEWMGIIRPSGGSTSYAQKFQGRVTMTRDTSTSTVYMELSSLRSEDTAVYYCAREEYAPFSAEYFQFWGQGTLVTVSS
VL: not shown
notes: Fab from E. coli; CH1 (with His and Flag tags) and kappa CL come from the expression plasmids; also called APFF N52R
On to B6, for which the “ELISA signal” value in assay [1] worked out at 0.01. Further, the “ECL signal” value in assay [2] was 21600.

B7: Fab VH1-46_IGHD6-6*01_IGHJ1*01 S102A/S103P/S104F/H111F G56T & L6_IGKJ1*01 (Fab, V domains shown)
VH: QVQLVQSGAEVKKPGASVKVSCKASGYTFTSYYMHWVRQAPGQGLEWMGIINPSGTSTSYAQKFQGRVTMTRDTSTSTVYMELSSLRSEDTAVYYCAREEYAPFSAEYFQFWGQGTLVTVSS
VL: not shown
notes: Fab from E. coli; CH1 (with His and Flag tags) and kappa CL come from the expression plasmids; also called APFF G56T
Regarding B7, the “ELISA signal” value in assay [1] was determined as 0.2. For the same molecule, the “ECL signal” value in assay [2] is 60700.

B8: Fab VH1-46_IGHD6-6*01_IGHJ1*01 S102A/S103P/S104F/H111F N52T & L6_IGKJ1*01 (Fab, V domains shown)
VH: QVQLVQSGAEVKKPGASVKVSCKASGYTFTSYYMHWVRQAPGQGLEWMGIITPSGGSTSYAQKFQGRVTMTRDTSTSTVYMELSSLRSEDTAVYYCAREEYAPFSAEYFQFWGQGTLVTVSS
VL: not shown
notes: Fab from E. coli; CH1 (with His and Flag tags) and kappa CL come from the expression plasmids; also called APFF N52T
As for B8, the “ELISA signal” value in assay [1] was found to be 0.61. Besides, the “ECL signal” value in assay [2] is 66800.

B9: Fab VH1-46_IGHD6-6*01_IGHJ1*01 S102A/S103P/S104F/H111F G56K & L6_IGKJ1*01 (Fab, V domains shown)
VH: QVQLVQSGAEVKKPGASVKVSCKASGYTFTSYYMHWVRQAPGQGLEWMGIINPSGKSTSYAQKFQGRVTMTRDTSTSTVYMELSSLRSEDTAVYYCAREEYAPFSAEYFQFWGQGTLVTVSS
VL: not shown
notes: Fab from E. coli; CH1 (with His and Flag tags) and kappa CL come from the expression plasmids; also called APFF G56K
For the molecule B9, the “ELISA signal” value in assay [1] amounted to 0.19. The “ECL signal” value in assay [2] was 66200.

B10: Fab VH1-46_IGHD6-6*01_IGHJ1*01 S102A/S103P/S104F/H111F I51T/N52V & L6_IGKJ1*01 (Fab, V domains shown)
VH: QVQLVQSGAEVKKPGASVKVSCKASGYTFTSYYMHWVRQAPGQGLEWMGITVPSGGSTSYAQKFQGRVTMTRDTSTSTVYMELSSLRSEDTAVYYCAREEYAPFSAEYFQFWGQGTLVTVSS
VL: not shown
notes: Fab from E. coli; CH1 (with His and Flag tags) and kappa CL come from the expression plasmids; also called APFF I51T/N52V
In the case of B10, in assay [1], the “ELISA signal” value is 1.23. For the same molecule, the “ECL signal” value in assay [2] worked out at 71700.

B11: Fab VH1-46_IGHD6-6*01_IGHJ1*01 S102A/S103P/S104F/H111F N52K & L6_IGKJ1*01 (Fab, V domains shown)
VH: QVQLVQSGAEVKKPGASVKVSCKASGYTFTSYYMHWVRQAPGQGLEWMGIIKPSGGSTSYAQKFQGRVTMTRDTSTSTVYMELSSLRSEDTAVYYCAREEYAPFSAEYFQFWGQGTLVTVSS
VL: not shown
notes: Fab from E. coli; CH1 (with His and Flag tags) and kappa CL come from the expression plasmids; also called APFF N52K
With B11, in assay [1], the “ELISA signal” value amounted to 0.45. In addition, in assay [2], the “ECL signal” value worked out at 67100.

B12: Fab VH1-46_IGHD6-6*01_IGHJ1*01 S102A/S103P/S104F/H111F G56V & L6_IGKJ1*01 (Fab, V domains shown)
VH: QVQLVQSGAEVKKPGASVKVSCKASGYTFTSYYMHWVRQAPGQGLEWMGIINPSGVSTSYAQKFQGRVTMTRDTSTSTVYMELSSLRSEDTAVYYCAREEYAPFSAEYFQFWGQGTLVTVSS
VL: not shown
notes: Fab from E. coli; CH1 (with His and Flag tags) and kappa CL come from the expression plasmids; also called APFF G56V
Take B12: the “ELISA signal” value in assay [1] worked out at 0.23. In assay [2], the “ECL signal” value stood at 68600.
